Biological target: T1, ϕ29 DNA polymerase (wild-type) (bacteriophage ϕ29, UniProt P03680 1-575)
T1 sequence: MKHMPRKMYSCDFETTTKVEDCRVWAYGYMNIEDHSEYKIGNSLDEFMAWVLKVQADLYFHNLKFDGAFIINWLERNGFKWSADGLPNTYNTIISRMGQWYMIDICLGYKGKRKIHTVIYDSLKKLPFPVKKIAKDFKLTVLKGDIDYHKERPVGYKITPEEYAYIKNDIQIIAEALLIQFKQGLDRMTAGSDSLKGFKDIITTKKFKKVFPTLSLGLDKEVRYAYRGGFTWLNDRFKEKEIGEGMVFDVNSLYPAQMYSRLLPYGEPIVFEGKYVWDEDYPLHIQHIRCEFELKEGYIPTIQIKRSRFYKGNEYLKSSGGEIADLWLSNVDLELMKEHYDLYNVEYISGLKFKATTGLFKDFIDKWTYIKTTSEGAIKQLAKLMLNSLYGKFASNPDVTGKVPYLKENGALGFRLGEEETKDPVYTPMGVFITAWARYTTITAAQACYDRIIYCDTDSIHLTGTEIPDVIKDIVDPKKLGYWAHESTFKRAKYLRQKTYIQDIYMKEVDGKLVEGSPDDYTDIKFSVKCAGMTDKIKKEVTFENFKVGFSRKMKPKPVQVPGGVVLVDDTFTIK
Test: cell-based or functional assay

B1: ϕ29 terminal protein mutant R158A (natural protein, bacteriophage ϕ29, UniProt P03681 1-266, looked up)
chain: MARSPRIRIKDNDKAEYARLVKNTKAKIARTKKKYGVDLTAEIDIPDLDSFETRAQFNKWKEQASSFTNRANMRYQFEKNAYGVVASKAKIAEIERNTKEVQRLVDEKIKAMKDKEYYAGGKPQGTIEQRIAMTSPAHVTGINRPHDFDFSKVRSYSALRTLEESMEMRTDPQYYEKKMIQLQLNFIKSVEGSFNSFDAADELIEELKKIPPDDFYELFLRISEISFEEFDSEGNTVENVEGNVYKILSYLEQYRRGDFDLSLKGF
TP-DNA amplification (%), activity with respect to the wild-type TP: 1 % of wild-type TP | TP-DNA replication, activity with respect to the wild-type TP: 17 % of wild-type TP

Source: PMC3351185 (Nucleic Acids Research, 2011)
